# In US20240067748A1:
# Key:
# [1] = molecular target: human Trop2 on cells (human) (UniProt P09758); assay: flow cytometry on BxPC-3 tumor cells; negative control
# [2] = molecular target: monkey Trop2 on CHO-K1 cells (monkey); assay: flow cytometry on CHO-K1/monkey Trop2 cells; negative control
# [3] = molecular target: monkey Trop2 on CHO-K1 cells (monkey); assay: flow cytometry on CHO-K1/monkey Trop2 cells (second run); negative control
# [4] = molecular target: human Trop2 on cells (human) (UniProt P09758); assay: flow cytometry on BxPC-3 tumor cells (second panel of the table); negative control
# monkey Trop2 on CHO-K1 cells (monkey), sequence (A0A2K5 entry or part of it limits assumed): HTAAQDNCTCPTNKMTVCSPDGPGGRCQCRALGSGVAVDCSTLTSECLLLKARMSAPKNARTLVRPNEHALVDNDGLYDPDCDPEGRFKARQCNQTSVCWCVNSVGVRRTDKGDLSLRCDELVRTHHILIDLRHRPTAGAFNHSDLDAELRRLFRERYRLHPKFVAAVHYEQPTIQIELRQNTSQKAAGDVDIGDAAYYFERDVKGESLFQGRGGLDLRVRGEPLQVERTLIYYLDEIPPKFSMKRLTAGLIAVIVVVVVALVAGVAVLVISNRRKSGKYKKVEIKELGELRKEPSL
# human Trop2 on cells (human), sequence (P09758 27-323): as the sequence (A0A2K5 entry or part of it limits assumed) above, with V36M, E46K, N67S, V204I, V266M, S272T counted along it
substance,measurement,setting,value
hIgG1 (antibody),Maximum MFI value,[1],77 MFI
same,EC50,[2],1.89 µM
same,Maximum MFI value,[2],277 MFI
same,Maximum MFI value,[3],109 MFI
same,Maximum MFI value,[4],670 MFI
